# Patent publication US8642284B1, “Methods for identifying agents that alter NAD-dependent deacetylation activity of a SIR2 protein” (Massachusetts Institute of Technology, priority 1999, dated 2014)
# Where a chain is given by its changes, count along the chain named. Names may count otherwise.
# B1: F265A: recombinant mSir2α core domain mutant, residue changed to alanine (protein)
# chain: MADEVALALQAAGSPSAAAAMEAASQPADEPLRKRPRRDGPGLGRSPGEPSAAVAPAAAGCEAASAAAPAALWREAAGAAASAEREAPATAVAGDGDNGSGLRREPRAADDFDDDEGEEEDEAAAAAAAAAIGYRDNLLLTDGLLTNGFHSCESDDDDRTSHASSSDWTPRPRIGPYTFVQQHLMIGTDPRTILKDLLPETIPPPELDDMTLWQIVINILSEPPKRKKRKDINTIEDAVKLLQECKKIIVLTGAGVSVSCGIPDARSRDGIYARLAVDFPDLPDPQAMFDIEYFRKDPRPFFKFAKEIYPGQFQPSLCHKFIALSDKEGKLLRNYTQNIDTLEQVAGIQRILQCHGSFATASCLICKYKVDCEAVRGDIFNQVVPRCPRCPADEPLAIMKPEIVFFGENLPEQFHRAMKYDKDEVDLLIVIGSSLKVRPVALIPSSIPHEVPQILINREPLPHLHFDVELLGDCDVIINELCHRLGGEYAKLCCNPVKLSEITEKPPRPQKELVHLSELPPTPLHISEDSSSPERTVPQDSSVIATLVDQATNNNVNDLEVSESSCVEEKPQEVQTSRNVENINVENPDFKAVGSSTADKNERTSVAETVRKCWPNRLAKEQISKRLEGNQYLFVPPNRYIFHGAEVYSDSEDDVLSSSSCGSNSDSGTCQSPSLEEPLEDESEIEEFYNGLEDDTERPECAGGSGFGADGGDQEVVNEAIATRQELTDVNYPSDKS
# modifications: left off: small tags and cut ends
# notes: recombinant mSir2α core domain mutant, residue changed to alanine
# B2: R266A: recombinant mSir2α core domain mutant, residue changed to alanine (protein)
# chain: B1 chain with A265F, R266A
# modifications: left off: small tags and cut ends
# notes: as for B1
# B3: T336A: recombinant mSir2α core domain mutant, residue changed to alanine (protein)
# chain: B1 chain with A265F, T336A
# modifications: left off: small tags and cut ends
# notes: as for B1
# B4: G270A: recombinant mSir2α core domain mutant, residue changed to alanine (protein)
# chain: B1 chain with A265F, G270A
# modifications: left off: small tags and cut ends
# notes: as for B1
# B5: H355A: recombinant mSir2α core domain mutant, residue changed to alanine (protein)
# chain: B1 chain with A265F, H355A
# modifications: left off: small tags and cut ends
# notes: as for B1
# Tested on: histone H2B
# Experiment: ADP-ribosylation activity of wild type and mutant recombinant mSir2α proteins on histones
# Type: biochemical, calf
# Conditions: 10 μg recombinant protein; H2B radioactivity, wild type = 100%
# Procedure: Site-directed mutagenesis of mSIR2α core domain was performed with the GeneEditor™ system (Promega, Madison, Wis.) according to the procedure provided by the manufacturer. The mutant recombinant proteins were prepared in the same way as described above.
# The typical reaction was performed in 50 or 100 μl of the buffer containing 5 mM Tris-HCl [pH8.0 or 9.0], 4 mM MgCl2, 0.2 mM DTT, 1 μM cold β-NAD^+ (SIGMA®) and 8 μCi nicotinamide adenine dinucleotide 5′[α-^32P]triphosphate (NAD) as a donor of ADP-ribose (˜1000 Ci/mmol, Amersham Pharmacia Biotech). To check the sensitivity to poly- or mono-ADP-ribosylation inhibitors, 3-aminobenzamide (ICN Pharmaceuticals, CA), benzamide, novobiocin and coumermycin A1 (SIGMA®) were added to the reactions prior to adding Sir2 proteins, respectively. The wild type or mutant recombinant proteins (0.5-1 μg for ySir2p and 10 μg of mSir2α) were added with 4 μg of each histone purchased from Roche Molecular Biochemicals (Indianapolis, Ind.). For the peptide experiments, 5-10 μg of unacetylated or acetylated N-terminal tail peptides (amino acids 1-20) of H3 and H4 purchased from Upstate Biotechnology™ (Lake Placid, N.Y.) were used as substrates of the yeast and mouse Sir2 recombinant proteins.
# To analyze histone modification, 25 μl of 100% trichloroacetic acid (TCA) solution was mixed to the reaction mixture and left on ice for 15 min. The protein precipitates were centrifuged at 4° C. and washed with 5 or 20% TCA solution twice. The pellets were dissolved in 15 μl of Leammli's sample buffer and boiled for 1.5 min. The proteins were electrophoresed in a 10-20% gradient SDS-PAGE gel. The gel was stained with COOMASSIE® Brilliant Blue R-250 (GibcoBRL Life Technologies™, Frederick, Md.) to check equal loading of histones, dried, and exposed to KODAK® X-OMAT film.
# Aliquots of recombinant protein (10 μg) of the wild type recombinant mSir2α (WT), the pET control pET, and the mutant proteins (G253A, G255A, S257A, I262A, F265A, R266A, G270A, P285A, T336A, H355A) were incubated with H2B or H3. […] All of the mutations of highly conserved residues dramatically affected the mono-ADP-ribosylation activity of mSir2α (FIG. 6B). The results were similar using H2B or H3.
# The radioactivity of H2B modified by the wild type is assigned to 100% and other data were normalized according to the wild type activity and blots quantitated by Phosphorimaging. The averages and the standard deviations were calculated from two independent experiments. In the core domain of ySir2p, mutations on highly conserved residues also affected the mono-ADP-ribosylation activity. Therefore, the core domain of Sir2 proteins contain the catalytic activity of mono-ADP-ribosylation and the evolutionarily conserved residues in the core domain are essential for this activity.
row,Molecule,mono-ADP-ribosylation activity compared to the wild type activity
1,B1,completely abolished the activity
2,B2,18%
3,B3,completely abolished the activity
4,B4,completely abolished the activity
5,B5,completely abolished the activity
